{
  "source": "paper PMC6677129",
  "biological_target": "repeat domain (RPT) of Pmel17 (human) (UniProt P40967)",
  "assay": "co-sedimentation",
  "data": [
    {"substance": "repeat domain (RPT) of Pmel17 (from UniProt P40967 315-444) (domain or fragment)", "values": [
      {"measurement": "percent of RPT left in the supernatant, 0.1 mM LPG", "value": 54, "unit": "%"},
      {"measurement": "percent of RPT left in the supernatant, 0.5 mM LPG", "value": 16, "unit": "%"},
      {"measurement": "percent of protein in the supernatant, 0 mM LPG", "value": 108, "unit": "%"},
      {"measurement": "percent of protein in the supernatant, 10 mM LPG", "value": 92, "unit": "%"}
    ]}
  ]
}
